Consider 4 molecules from article PMC5727127 (2017).

Read-outs that look alike come from different tables or passages of the source. Where no end group is shown, it is not given here.

The target of assay [1] is T1, triple Tudor domain (3TD) of SETDB1, wildtype, as used in solution (ITC, NMR, crystals) (UniProt Q15047 190-410). Nature of the assay: NMR.
Assay [2] addresses T1, triple Tudor domain (3TD) of SETDB1, …. Nature of the assay: ITC.
Assay [3] concerns the target 3TD of SETDB1, Y268A mutant, as used in ITC (UniProt Q15047 190-410, Y268A). In words: ITC.
Assay [4] concerns the target 3TD of SETDB1, R384A mutant, as used in ITC (UniProt Q15047 190-410, alanine mutation of R384). Nature of the assay: ITC.
The target of assay [5] is 3TD of SETDB1, W358A mutant, as used in ITC and crystals (UniProt Q15047 190-410, W358A). Nature of the assay: ITC.
Assay [6] addresses T1, triple Tudor domain (3TD) of SETDB1, …. Nature of the assay: ITC. The source holds these as a separate data set.
Assay [7] addresses T2, 3TD of SETDB1, F332A mutant, as used in ITC (UniProt Q15047 190-410, F332A). In words: ITC.
Assay [8] addresses T2, 3TD of SETDB1, F332A mutant, as used in …. Nature of the assay: ITC. This is another data set of the same source.

With KQTARKSTGGK(Ac)APRKQ [monomodified H3K14ac peptide in solution (ITC, NMR; crystal)], the Kd in assay [1] was 930 µM; in assay [2] it was more than 500 µM.

Regarding KQTARK(Me2)STGGK(Ac)APRKQ [H3K9me2/K14ac peptide in solution (ITC; crystal with W358A), limits not stated], the Kd in assay [3] is 8.1 µM; in assay [4] it was 2.6 µM; in assay [5], 174 µM; in assay [6], 9.3 µM; in assay [7], approximately 350 µM; in assay [8] it was 353 µM.

Consider KQTARK(Me3)STGGK(Ac)APRKQ [H3K9me3/K14ac peptide in solution (ITC; crystals)], for which the dissociation constant (Kd) in assay [3] came to 135 µM; in assay [4], 9.2 µM; in assay [5] it was 55.6 µM; in assay [6] it was 23.9 µM.

As for KQTARK(Me)STGGK(Ac)APRKQ [H3K9me1/K14ac peptide in solution (ITC)], the results for the Kd in assay [3], in assay [4] and in assay [6] were 19.2 µM, 5.1 µM and 29.4 µM, respectively.
